The source of these data is patent publication US20250122288A1 (ARGENX, published 2025).

In test [1] the target is T1, neonatal Fc receptor (FcRn) (human, UniProt P55899 24-365; P61769 21-119).
T1 construct: whole, on cells; also called human FcRn
The experiment in a line: FcRn occupancy assay, 'previous studies'.

In test [2] the target is T1, neonatal Fc receptor (FcRn). The experiment in a line: in vitro FcRn occupancy assay.
The target is the same in test [3]. The experiment in a line: in vitro FcRn occupancy assay; reference implied to be two-armed TA-HEL-ABDEG.

What is called IC50 is the concentration that inhibits the measured activity by half.

Some results are limits rather than exact numbers.

T1 sequence (P55899 24-365 limits assumed, form in doubt, chain 1 of 2): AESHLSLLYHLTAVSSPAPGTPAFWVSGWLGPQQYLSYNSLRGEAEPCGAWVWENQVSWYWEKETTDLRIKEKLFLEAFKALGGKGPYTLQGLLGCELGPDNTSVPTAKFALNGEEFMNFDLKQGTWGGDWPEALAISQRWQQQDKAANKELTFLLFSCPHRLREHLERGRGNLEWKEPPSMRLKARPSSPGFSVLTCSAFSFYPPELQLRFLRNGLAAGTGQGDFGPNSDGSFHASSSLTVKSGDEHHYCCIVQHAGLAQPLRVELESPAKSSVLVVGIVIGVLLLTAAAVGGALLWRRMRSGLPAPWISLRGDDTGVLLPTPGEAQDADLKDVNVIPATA
T1 sequence (P61769 21-119 limits assumed, form in doubt, chain 2 of 2): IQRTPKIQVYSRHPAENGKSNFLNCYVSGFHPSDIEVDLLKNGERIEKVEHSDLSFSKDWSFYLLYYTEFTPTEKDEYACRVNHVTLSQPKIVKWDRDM

B1: mAb37-ABDEG (parental) (antibody)
chain 1: QVQLVQSGAEVMKPGSSVKVSCKASGYTFSWYHLEWVRQAPGHGLEWMGEIDPGTFTTNYNEKFKARVTFTADTSTSTAYMELSSLRSEDTAVYYCARFSHFSGSNHDYFDYWGQGTLVTVSSASTKGPSVFPLAPSSKSTSGGTAALGCLVKDYFPEPVTVSWNSGALTSGVHTFPAVLQSSGLYSLSSVVTVPSSSLGTQTYICNVNHKPSNTKVDKKVEPKSCDKTHTCPPCPAPELLGGPSVFLFPPKPKDTLYITREPEVTCVVVDVSHEDPEVKFNWYVDGVEVHNAKTKPREEQYNSTYRVVSVLTVLHQDWLNGKEYKCKVSNKALPAPIEKTISKAKGQPREPQVYTLPPSRDELTKNQVSLTCLVKGFYPSDIAVEWESNGQPENNYKTTPPVLDSDGSFFLYSKLTVDKSRWQQGNVFSCSVMHEALKFHYTQKSLSLSPG
chain 2: EIVMTQSPATLSVSPGERATLSCRASQSIGTNIHWYQQKPGQAPRLLIYYASESISGIPARFSGSGSGTEFTLTISSLQSEDFAVYYCQQSWSWPTTFGGGTKVEIKRTVAAPSVFIFPPSDEQLKSGTASVVCLLNNFYPREAKVQWKVDNALQSGNSQESVTEQDSKDSTYSLSSTLTLSKADYEKHKVYACEVTHQGLSSPVTKSFNRGEC
Molecule B1 registered an IC50 in test [1] of over 100 nM.

B2: efgartigimod (other)
chain: DKTHTCPPCPAPELLGGPSVFLFPPKPKDTLYITREPEVTCVVVDVSHEDPEVKFNWYVDGVEVHNAKTKPREEQYNSTYRVVSVLTVLHQDWLNGKEYKCKVSNKALPAPIEKTISKAKGQPREPQVYTLPPSRDELTKNQVSLTCLVKGFYPSDIAVEWESNGQPENNYKTTPPVLDSDGSFFLYSKLTVDKSRWQQGNVFSCSVMHEALKFHYTQKSLSLSPGK
B2: the IC50 in test [2] was 6 nM.

B3: bivalent (TA) HEL-ABDEG (antibody, human IgG1, kappa)
heavy: QVQLQESGPGLVRPSQTLSLTCTVSGFSLTGYGVNWVRQPPGRGLEWIGMIWGDGNTDYNSALKSRVTMLKDTSKNQFSLRLSSVTAADTAVYYCARERDYRLDYWGQGSLVTVSSASTKGPSVFPLAPSSKSTSGGTAALGCLVKDYFPEPVTVSWNSGALTSGVHTFPAVLQSSGLYSLSSVVTVPSSSLGTQTYICNVNHKPSNTKVDKKVEPKSCDKTHTCPPCPAPELLGGPSVFLFPPKPKDTLYITREPEVTCVVVDVSHEDPEVKFNWYVDGVEVHNAKTKPREEQYNSTYRVVSVLTVLHQDWLNGKEYKCKVSNKALPAPIEKTISKAKGQPREPQVYTLPPSRDELTKNQVSLTCLVKGFYPSDIAVEWESNGQPENNYKTTPPVLDSDGSFFLYSKLTVDKSRWQQGNVFSCSVMHEALKFHYTQKSLSLSPGK
light: DIQMTQSPSSLSASVGDRVTITCRASGNIHNYLAWYQQKPGKAPKLLIYYTTTLADGVPSRFSGSGSGTDYTFTISSLQPEDIATYYCQHFWSTPRTFGQGTKVEIKRTVAAPSVFIFPPSDEQLKSGTASVVCLLNNFYPREAKVQWKVDNALQSGNSQESVTEQDSKDSTYSLSSTLTLSKADYEKHKVYACEVTHQGLSSPVTKSFNRGEC
notes: Two-armed anti-hen egg lysozyme antibody with an Fc-ABDEG region; Copies of 2 follow from 'bivalent (TA)'
B3 registered a 50% inhibitory concentration (IC50) in test [2] of 14 nM.

B4: one-armed (OA) HEL-ABDEG (antibody, human IgG1, kappa)
heavy: QVQLQESGPGLVRPSQTLSLTCTVSGFSLTGYGVNWVRQPPGRGLEWIGMIWGDGNTDYNSALKSRVTMLKDTSKNQFSLRLSSVTAADTAVYYCARERDYRLDYWGQGSLVTVSSASTKGPSVFPLAPSSKSTSGGTAALGCLVKDYFPEPVTVSWNSGALTSGVHTFPAVLQSSGLYSLSSVVTVPSSSLGTQTYICNVNHKPSNTKVDKKVEPKSCDKTHTCPPCPAPELLGGPSVFLFPPKPKDTLYITREPEVTCVVVDVSHEDPEVKFNWYVDGVEVHNAKTKPREEQYNSTYRVVSVLTVLHQDWLNGKEYKCKVSNKALPAPIEKTISKAKGQPREPQVYTLPPSRDELTKNQVSLWCLVKGFYPSDIAVEWESNGQPENNYKTTPPVLDSDGSFFLYSKLTVDKSRWQQGNVFSCSVMHEALKFHYTQKSLSLSPG
chain: DKTHTCPPCPAPELLGGPSVFLFPPKPKDTLYITREPEVTCVVVDVSHEDPEVKFNWYVDGVEVHNAKTKPREEQYNSTYRVVSVLTVLHQDWLNGKEYKCKVSNKALPAPIEKTISKAKGQPREPQVYTLPPSRDELTKNQVSLSCAVKGFYPSDIAVEWESNGQPENNYKTTPPVLDSDGSFFLVSKLTVDKSRWQQGNVFSCSVMHEALKFHYTQKSLSLSPG
light: DIQMTQSPSSLSASVGDRVTITCRASGNIHNYLAWYQQKPGKAPKLLIYYTTTLADGVPSRFSGSGSGTDYTFTISSLQPEDIATYYCQHFWSTPRTFGQGTKVEIKRTVAAPSVFIFPPSDEQLKSGTASVVCLLNNFYPREAKVQWKVDNALQSGNSQESVTEQDSKDSTYSLSSTLTLSKADYEKHKVYACEVTHQGLSSPVTKSFNRGEC
notes: One anti-HEL Fab joined by a natural IgG1 hinge to the N-terminus of Fc-ABDEG; The Fc is a knob-into-hole heterodimer
For B4, the “fold improvement in FcRn occupancy” value in test [3] was 2 fold. In addition, 7 nM corresponded to half-maximal inhibition in test [2] (IC50).
